Data as given in patent US20160266136A1 (Stanford University, published 2016).

Assays:
mouse Gas6 [1] = biological target: T1, mouse Gas6 (mouse, UniProt Q61592 46-674, limits assumed); assay: KinExA
T1 construct: Used both for the KinExA value against mouse Gas6 and for the endogenous Gas6 in the serum of the nude mice; also called Gas6 (in serum of mice)
T1 sequence (looked up): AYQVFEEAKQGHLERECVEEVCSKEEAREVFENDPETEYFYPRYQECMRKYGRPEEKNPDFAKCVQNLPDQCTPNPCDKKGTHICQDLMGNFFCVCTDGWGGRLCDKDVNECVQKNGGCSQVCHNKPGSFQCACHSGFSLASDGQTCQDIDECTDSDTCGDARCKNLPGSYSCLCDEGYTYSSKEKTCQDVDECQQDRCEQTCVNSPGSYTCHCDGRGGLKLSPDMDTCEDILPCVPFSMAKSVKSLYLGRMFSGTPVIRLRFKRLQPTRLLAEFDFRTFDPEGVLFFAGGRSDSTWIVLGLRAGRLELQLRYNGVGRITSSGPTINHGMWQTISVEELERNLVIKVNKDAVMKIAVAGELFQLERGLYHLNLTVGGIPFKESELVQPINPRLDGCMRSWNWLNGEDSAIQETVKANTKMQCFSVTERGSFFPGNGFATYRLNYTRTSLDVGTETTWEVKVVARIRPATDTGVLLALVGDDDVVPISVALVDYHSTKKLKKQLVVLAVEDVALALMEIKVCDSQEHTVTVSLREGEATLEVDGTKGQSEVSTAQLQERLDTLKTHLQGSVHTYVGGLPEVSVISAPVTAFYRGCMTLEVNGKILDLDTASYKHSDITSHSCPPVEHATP
Method: (§1) A KinExA 3200 instrument (Sapidyne Instruments Inc.) was used to measure equilibrium binding and association rate constants for the Gas6-Axl interactions. […] Adsorption coating of 200 mg of beads was performed using 45 μg of protein at room temp for 1 h. The protein solution was then removed and beads were blocked using PBS with 1% BSA for 2 h at room temp. Beads were stored in blocking buffer at 4° C. and used within two weeks. All binding reactions were carried out in phosphate buffered saline with 1 mg/ml BSA and 0.02% sodium azide.
(§2) For equilibrium binding studies, three independent titrations were completed for each Axl Ig1 or Axl Fc fusion unless otherwise noted. […] Each sample was analyzed twice and data from the three independent equilibrium binding experiments were globally analyzed using n-curve analysis in the KinExA Pro 3.6.2 software (Sapidyne Instruments Inc.) to obtain the Kd value.

mouse Gas6 [2] = biological target: T1, mouse Gas6; assay: KinExA; column Kd(pM) mGas6
Method: as §1, §2

Protein S (OriGene) = biological target: T2, Protein S (OriGene) (UniProt P07225 42-676); assay: KinExA signal test on MYD1 Fc coated beads, Protein S probed with an anti-c-Myc antibody
T2 construct: Carries a c-Myc tag by the detection used
T2 sequence (looked up): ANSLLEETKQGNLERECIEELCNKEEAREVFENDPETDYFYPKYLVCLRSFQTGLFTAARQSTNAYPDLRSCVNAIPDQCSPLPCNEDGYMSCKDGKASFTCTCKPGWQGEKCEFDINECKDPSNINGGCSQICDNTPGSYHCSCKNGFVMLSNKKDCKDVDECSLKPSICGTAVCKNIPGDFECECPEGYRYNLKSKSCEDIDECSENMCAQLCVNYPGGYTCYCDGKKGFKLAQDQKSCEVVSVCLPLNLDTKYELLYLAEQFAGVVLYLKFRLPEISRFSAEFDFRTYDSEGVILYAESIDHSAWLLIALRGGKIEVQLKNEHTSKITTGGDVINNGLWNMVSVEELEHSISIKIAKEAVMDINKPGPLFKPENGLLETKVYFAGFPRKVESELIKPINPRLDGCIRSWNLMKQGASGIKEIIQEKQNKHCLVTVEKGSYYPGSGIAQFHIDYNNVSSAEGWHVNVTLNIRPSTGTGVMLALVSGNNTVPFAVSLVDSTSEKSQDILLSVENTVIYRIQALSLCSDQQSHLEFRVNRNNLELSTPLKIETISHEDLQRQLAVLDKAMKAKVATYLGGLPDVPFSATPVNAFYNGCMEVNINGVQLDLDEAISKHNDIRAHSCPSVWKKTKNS
Method: as §1
To test binding of Protein S (OriGene) to MYD1, 700 μl of a 10 nM solution was flowed over the capture beads.

Kd (mouse Gas6 [1]): ~1 pM
Kd (mouse Gas6 [2]): 1.1 pM
binding result (Protein S (OriGene)): no binding (tested: 10 nM)
B1: MYD1 Fc (Fc fusion)
chain: APRGTQAEESPFVSNPGNITGARGLTGTLRCQLQVQGEPPEVHWLRDGQILELADSTQTQVPLGEDEQGDWIVASQLRITSLQLSDTGQYQCLVFLGHQTFVSQPGYVRLEGLPYFLEEPEDRTVAANTPFNLSCQAQGPPEPVDLLWLQDAVPLATAPGHGPQRSLHVPGLNKTSSFSCEAHNAKGVTTSRTATITVLPQQPRNLHLVSRQPTELEVAWTPGLSGIYPLTHCTLQAVLSNDGMGIQAGEPDPPEEPLTSQASVPPHQLRLGSLHPHTPYHIRVACTSSQGPSSWTHWLPVETPEGVPLGPPENISATRNGSQAFVHWQEPRAPLQGTLLGYRLAYQGQDTPEVLMDIGLRQEVTLELQGDGSVSNLTVCVAAYTAAGDGPWSLPVPLEAWRPGQAQPVHQLVKEPSTPAFS
notes: Disulfide-linked dimer from HEK cells; also the capture reagent on the KinExA beads; also called MYD1 Fc fusion; not shown: Fc domain of a human IgG1
